These results are taken from PMC3653351 (The Journal of Cell Biology, 2013).

One may read the stoichiometry N as the number of molecules, sites or subunits per partner or assembly. As a reminder, the Kd is the concentration at which binding is half-saturated.

Assay [1] concerns the target Myc-PK-SV40NLS (not stated | SV40). The experiment in a line: SEC. (In general: SEC sorts molecules by how far they enter the pores of the column.)
Assay [2] has as its target Myc-PK-TprNLS. The experiment in a line: SEC.
For assay [3], the target named is GST-SV40NLS (SV40). The experiment in a line: ELISA. (In general: An ELISA detects its analyte on a solid surface through an enzyme-linked reagent.)
Assay [4] concerns the target Recombinant KPNA2/Importin-β (UniProt P52292;Q14974). The experiment in a line: ELISA.

Sequence of Recombinant KPNA2/Importin-β (UniProt P52292;Q14974) (Q14974 whole entry, one chain of several): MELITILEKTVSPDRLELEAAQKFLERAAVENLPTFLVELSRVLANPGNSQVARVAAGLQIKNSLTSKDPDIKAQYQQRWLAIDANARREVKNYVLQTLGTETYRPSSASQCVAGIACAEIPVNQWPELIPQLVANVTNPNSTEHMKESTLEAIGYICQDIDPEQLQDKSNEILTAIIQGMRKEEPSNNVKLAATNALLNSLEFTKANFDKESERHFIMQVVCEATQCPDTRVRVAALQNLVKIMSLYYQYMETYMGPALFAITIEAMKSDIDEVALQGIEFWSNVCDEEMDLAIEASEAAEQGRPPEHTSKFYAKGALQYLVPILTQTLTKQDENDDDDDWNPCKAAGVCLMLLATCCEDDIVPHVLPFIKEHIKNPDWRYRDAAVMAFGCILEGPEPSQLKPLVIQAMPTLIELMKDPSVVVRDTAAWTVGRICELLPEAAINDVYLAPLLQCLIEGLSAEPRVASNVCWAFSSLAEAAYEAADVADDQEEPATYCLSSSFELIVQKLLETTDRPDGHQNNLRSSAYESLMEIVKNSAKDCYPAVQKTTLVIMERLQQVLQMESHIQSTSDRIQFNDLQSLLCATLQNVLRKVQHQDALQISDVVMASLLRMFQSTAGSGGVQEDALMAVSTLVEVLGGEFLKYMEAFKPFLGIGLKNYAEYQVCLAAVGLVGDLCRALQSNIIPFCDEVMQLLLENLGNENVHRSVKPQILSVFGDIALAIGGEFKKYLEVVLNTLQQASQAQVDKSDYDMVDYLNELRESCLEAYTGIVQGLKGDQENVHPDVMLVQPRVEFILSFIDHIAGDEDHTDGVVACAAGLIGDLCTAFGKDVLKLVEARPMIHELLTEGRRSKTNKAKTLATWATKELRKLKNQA

In assay [1], Myc-PK-SV40NLS yielded a stoichiometry N of 4.

In turn, Myc-PK-TprNLS gave a stoichiometry N in assay [2] of 4.

For “Recombinant KPNA2/Importin-β (from UniProt P52292;Q14974) (complex)”, the Kd in assay [3] is 10.5 nM.

B1: GST-TprNLS (domain or fragment)
chain: STAVFGTVSATPSSSLPKRTREEEEDSTIEASDQVSDDTVEMPLPKKLKSVTPVGT
On to B1, for which, in assay [4], the Kd was determined as 3.2 nM.
